Measured values published in patent US12723078 (University of Texas, dated 2026).

What was measured:
D1-Fc = molecular target: T1, D1-Fc (human, UniProt Q8NHL6); test: ELISA on LILRB1 domain-Fc fusion proteins
T1 construct: D1 domain; also called LILRB1 D1-Fc

D2-Fc = molecular target: T2, D2-Fc (human, UniProt Q8NHL6); test: ELISA on LILRB1 domain-Fc fusion proteins
T2 construct: D2 domain; also called LILRB1 D2-Fc

D3-Fc = molecular target: T3, D3-Fc (human, UniProt Q8NHL6); test: ELISA on LILRB1 domain-Fc fusion proteins
T3 construct: D3 domain; also called LILRB1 D3-Fc

D4SR-Fc = molecular target: T4, D4SR-Fc (human, UniProt Q8NHL6); test: ELISA on LILRB1 domain-Fc fusion proteins
T4 construct: D4 and stalk region
T4 sequence (Q8NHL6 313-461 limits assumed): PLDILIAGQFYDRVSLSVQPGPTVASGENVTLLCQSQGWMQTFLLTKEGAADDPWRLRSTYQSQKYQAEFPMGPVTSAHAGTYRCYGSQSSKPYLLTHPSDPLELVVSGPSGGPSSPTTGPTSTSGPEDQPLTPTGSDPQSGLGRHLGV

SR-Fc = molecular target: T5, SR-Fc (human, UniProt Q8NHL6); test: ELISA on LILRB1 domain-Fc fusion proteins
T5 construct: stalk region
T5 sequence (Q8NHL6 410-461 limits assumed): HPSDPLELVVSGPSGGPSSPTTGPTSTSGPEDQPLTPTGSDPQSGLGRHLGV

D23-Fc = molecular target: T6, D23-Fc (human, UniProt Q8NHL6); test: ELISA on LILRB1 domain-Fc fusion proteins
T6 construct: D2-D3
T6 sequence (Q8NHL6 116-312 limits assumed): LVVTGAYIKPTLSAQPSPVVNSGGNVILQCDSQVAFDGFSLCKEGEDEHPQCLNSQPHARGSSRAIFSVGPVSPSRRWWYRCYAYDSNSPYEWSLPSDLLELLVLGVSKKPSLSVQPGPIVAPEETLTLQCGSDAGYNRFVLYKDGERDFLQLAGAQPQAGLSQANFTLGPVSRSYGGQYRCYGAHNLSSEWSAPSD

D34SR-Fc = molecular target: T7, D34SR-Fc (human, UniProt Q8NHL6); test: ELISA on LILRB1 domain-Fc fusion proteins
T7 construct: D3-D4 and stalk region

D234SR-Fc = molecular target: T8, D234SR-Fc (human, UniProt Q8NHL6); test: ELISA on LILRB1 domain-Fc fusion proteins
T8 construct: D2-D4 and stalk region

[1] = molecular target: T9, recombinant human LILRB1 protein (human, UniProt Q8NHL6 24-461); test: Octet RED96, LILRB1 at 100, 33.3, 11.1 and 3.7 nM
T9 construct: ELISA and Octet methods say only 'recombinant LILRB1'; also called recombinant LILRB1; LILRB1 recombinant proteins
T9 sequence (Q8NHL6 24-461 limits assumed): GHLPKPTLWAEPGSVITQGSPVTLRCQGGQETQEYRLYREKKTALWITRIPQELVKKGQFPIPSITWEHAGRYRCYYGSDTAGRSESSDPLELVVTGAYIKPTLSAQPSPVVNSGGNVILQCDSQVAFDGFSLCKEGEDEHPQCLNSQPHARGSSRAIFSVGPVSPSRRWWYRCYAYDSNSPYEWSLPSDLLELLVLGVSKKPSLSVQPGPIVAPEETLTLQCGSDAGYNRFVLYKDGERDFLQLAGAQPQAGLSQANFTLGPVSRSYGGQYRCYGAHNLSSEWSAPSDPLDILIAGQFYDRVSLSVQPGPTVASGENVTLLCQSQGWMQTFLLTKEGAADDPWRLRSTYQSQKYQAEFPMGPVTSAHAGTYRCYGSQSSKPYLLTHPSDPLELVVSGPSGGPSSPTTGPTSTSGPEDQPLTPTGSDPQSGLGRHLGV

LILRB3 on reporter cells [2] = molecular target: T10, LILRB3 on reporter cells (UniProt O75022 24-631, limits assumed); test: flow cytometry on 2B4 cells expressing the LILR, PE
T10 construct: whole, on cells

LILRB4 on reporter cells [3] = molecular target: T11, LILRB4 on reporter cells (UniProt Q8NHJ6 22-448); test: as above
T11 construct: whole, on cells

LILRB5 on reporter cells [4] = molecular target: T12, LILRB5 on reporter cells (UniProt O75023 24-590, limits assumed); test: as above
T12 construct: whole, on cells
T12 sequence (O75023 24-590 limits assumed): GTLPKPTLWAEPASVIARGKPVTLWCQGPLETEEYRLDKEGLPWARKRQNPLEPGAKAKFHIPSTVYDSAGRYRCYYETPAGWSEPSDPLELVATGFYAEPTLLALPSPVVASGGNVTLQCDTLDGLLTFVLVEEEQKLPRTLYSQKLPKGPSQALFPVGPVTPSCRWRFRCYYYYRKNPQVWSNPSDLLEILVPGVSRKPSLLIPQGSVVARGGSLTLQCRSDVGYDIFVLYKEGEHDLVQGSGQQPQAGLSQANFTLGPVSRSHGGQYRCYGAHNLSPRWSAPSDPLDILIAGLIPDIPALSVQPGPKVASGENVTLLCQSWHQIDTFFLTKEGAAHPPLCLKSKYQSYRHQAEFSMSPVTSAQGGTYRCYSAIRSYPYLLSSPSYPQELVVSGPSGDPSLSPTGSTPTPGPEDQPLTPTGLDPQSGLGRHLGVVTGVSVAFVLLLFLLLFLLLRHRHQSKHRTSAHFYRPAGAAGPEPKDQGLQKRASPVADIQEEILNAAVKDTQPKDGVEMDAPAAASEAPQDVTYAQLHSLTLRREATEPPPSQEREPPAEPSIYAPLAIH

LILRA2 on reporter cells [5] = molecular target: T13, LILRA2 on reporter cells (UniProt Q8N149 24-483); test: as above
T13 construct: whole, on cells
T13 sequence (Q8N149 24-483): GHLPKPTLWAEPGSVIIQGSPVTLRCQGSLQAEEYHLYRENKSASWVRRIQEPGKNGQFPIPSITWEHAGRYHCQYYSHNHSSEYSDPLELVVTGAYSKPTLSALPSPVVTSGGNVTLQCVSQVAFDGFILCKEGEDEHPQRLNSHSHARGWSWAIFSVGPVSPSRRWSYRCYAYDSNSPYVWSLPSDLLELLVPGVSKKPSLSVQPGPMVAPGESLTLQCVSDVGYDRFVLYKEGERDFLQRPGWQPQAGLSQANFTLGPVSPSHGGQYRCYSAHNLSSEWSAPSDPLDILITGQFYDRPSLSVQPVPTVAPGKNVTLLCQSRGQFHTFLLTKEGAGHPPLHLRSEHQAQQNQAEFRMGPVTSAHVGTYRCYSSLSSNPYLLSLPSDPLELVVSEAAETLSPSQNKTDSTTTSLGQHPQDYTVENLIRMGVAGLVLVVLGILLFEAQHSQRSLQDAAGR

LILRA4 on reporter cells [6] = molecular target: T14, LILRA4 on reporter cells (UniProt P59901 24-499); test: as above
T14 construct: whole, on cells
T14 sequence (P59901 24-499): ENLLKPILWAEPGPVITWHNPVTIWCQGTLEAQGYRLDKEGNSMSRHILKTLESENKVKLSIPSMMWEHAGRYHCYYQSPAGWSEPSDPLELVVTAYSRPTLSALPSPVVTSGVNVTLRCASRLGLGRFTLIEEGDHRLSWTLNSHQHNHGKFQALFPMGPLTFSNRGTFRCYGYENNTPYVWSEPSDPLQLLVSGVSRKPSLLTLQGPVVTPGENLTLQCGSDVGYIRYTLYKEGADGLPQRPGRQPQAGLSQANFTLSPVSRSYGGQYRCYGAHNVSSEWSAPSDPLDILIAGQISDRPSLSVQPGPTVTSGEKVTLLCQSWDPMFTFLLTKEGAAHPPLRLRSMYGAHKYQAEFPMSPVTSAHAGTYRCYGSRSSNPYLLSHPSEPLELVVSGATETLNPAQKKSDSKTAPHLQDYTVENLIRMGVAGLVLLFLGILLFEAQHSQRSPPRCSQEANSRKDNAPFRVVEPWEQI

LILRA1 on reporter cells [7] = molecular target: T15, LILRA1 on reporter cells (UniProt O75019 17-489, limits assumed); test: flow cytometry on LILR reporter cells, anti-rabbit IgG PE
T15 construct: whole, on cells
T15 sequence (O75019 17-489 limits assumed): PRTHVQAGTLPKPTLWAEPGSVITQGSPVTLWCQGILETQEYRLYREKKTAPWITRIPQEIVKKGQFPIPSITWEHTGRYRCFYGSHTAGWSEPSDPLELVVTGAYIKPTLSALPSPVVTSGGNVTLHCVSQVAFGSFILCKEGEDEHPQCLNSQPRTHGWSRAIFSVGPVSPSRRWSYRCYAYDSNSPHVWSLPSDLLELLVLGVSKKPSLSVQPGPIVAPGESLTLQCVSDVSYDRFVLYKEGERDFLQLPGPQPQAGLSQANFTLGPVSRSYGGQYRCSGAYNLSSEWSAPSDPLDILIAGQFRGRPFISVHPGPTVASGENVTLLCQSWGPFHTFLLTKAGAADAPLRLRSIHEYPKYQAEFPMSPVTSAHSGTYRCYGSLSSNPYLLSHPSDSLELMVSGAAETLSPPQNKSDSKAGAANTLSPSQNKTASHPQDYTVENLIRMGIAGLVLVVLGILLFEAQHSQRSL

LILRA2 on reporter cells [8] = molecular target: T13, LILRA2 on reporter cells; test: as above
LILRB2 on reporter cells = molecular target: T16, LILRB2 on reporter cells (UniProt Q8N423 22-597); test: flow cytometry on LILR reporter cells, 0.5 µg/mL rabbit B1-176, anti-rabbit IgG PE
T16 construct: whole, on cells; The construct is not described
T16 sequence (Q8N423 22-597): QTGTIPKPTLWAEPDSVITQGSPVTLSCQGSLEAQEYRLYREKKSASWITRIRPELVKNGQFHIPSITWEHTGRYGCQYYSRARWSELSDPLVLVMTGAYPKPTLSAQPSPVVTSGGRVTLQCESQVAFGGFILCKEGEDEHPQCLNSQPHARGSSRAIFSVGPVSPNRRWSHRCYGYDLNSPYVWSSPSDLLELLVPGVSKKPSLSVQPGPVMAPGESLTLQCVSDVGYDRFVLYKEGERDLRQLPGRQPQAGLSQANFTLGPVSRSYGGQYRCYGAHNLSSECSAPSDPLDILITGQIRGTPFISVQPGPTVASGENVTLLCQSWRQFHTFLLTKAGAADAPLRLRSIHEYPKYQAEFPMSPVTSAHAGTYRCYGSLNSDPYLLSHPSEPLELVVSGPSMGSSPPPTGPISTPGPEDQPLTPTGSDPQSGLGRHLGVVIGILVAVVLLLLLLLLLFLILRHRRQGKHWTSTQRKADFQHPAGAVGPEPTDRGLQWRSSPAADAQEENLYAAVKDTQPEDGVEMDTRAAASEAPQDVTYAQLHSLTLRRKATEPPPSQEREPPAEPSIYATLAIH

LILRB3 on reporter cells [9] = molecular target: T10, LILRB3 on reporter cells; test: as above
LILRB4 on reporter cells [10] = molecular target: T11, LILRB4 on reporter cells; test: as above
LILRB5 on reporter cells [11] = molecular target: T12, LILRB5 on reporter cells; test: as above
LILRA1 on reporter cells [12] = molecular target: T15, LILRA1 on reporter cells; test: as above
[13] = molecular target: T17, LILRB1 expressed on cell surface (human, UniProt Q8NHL6 24-650); test: as above
T17 construct: One entry is used for LILRB1 on reporter cells and on NK cells; also called LILRB1 NFAT-GFP reporter cell; LILRB1 reporter cells
T17 sequence (Q8NHL6 24-650 limits assumed): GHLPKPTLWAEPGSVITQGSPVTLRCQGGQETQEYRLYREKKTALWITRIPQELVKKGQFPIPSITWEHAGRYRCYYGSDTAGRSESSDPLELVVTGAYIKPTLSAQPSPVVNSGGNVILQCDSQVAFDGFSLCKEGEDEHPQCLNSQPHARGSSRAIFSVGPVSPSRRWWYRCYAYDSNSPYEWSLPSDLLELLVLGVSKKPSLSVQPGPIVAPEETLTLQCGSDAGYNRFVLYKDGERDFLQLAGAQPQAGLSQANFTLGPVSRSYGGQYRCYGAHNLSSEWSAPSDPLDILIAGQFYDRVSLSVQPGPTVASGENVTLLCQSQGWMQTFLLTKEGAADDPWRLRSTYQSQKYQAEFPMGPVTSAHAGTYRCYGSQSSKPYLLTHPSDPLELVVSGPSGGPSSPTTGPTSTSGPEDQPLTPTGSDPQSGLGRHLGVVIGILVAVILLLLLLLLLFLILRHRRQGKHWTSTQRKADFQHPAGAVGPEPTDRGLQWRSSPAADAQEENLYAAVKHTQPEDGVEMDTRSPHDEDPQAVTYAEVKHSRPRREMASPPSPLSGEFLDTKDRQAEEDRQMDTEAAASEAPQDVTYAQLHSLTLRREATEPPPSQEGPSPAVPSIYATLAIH

LILRA2 on reporter cells [14] = molecular target: T13, LILRA2 on reporter cells; test: as above
LILRA3 on reporter cells = molecular target: T18, LILRA3 on reporter cells (UniProt Q8N6C8 24-439); test: as above
T18 construct: whole, on cells
T18 sequence (Q8N6C8 24-439): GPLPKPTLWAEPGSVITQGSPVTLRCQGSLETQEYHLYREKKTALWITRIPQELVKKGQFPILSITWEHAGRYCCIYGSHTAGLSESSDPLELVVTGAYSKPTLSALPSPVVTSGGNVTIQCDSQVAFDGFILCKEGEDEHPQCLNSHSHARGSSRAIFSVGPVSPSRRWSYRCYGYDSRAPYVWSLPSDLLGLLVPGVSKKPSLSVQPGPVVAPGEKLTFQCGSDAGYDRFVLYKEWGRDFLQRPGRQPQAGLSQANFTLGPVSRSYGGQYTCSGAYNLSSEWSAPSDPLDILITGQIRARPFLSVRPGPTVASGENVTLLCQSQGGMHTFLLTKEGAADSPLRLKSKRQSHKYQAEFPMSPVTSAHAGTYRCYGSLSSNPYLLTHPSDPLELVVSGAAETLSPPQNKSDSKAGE

LILRA4 on reporter cells [15] = molecular target: T14, LILRA4 on reporter cells; test: as above
LILRA5 on reporter cells = molecular target: T19, LILRA5 on reporter cells (UniProt A6NI73 42-299); test: as above
T19 construct: whole, on cells
T19 sequence (A6NI73 42-299): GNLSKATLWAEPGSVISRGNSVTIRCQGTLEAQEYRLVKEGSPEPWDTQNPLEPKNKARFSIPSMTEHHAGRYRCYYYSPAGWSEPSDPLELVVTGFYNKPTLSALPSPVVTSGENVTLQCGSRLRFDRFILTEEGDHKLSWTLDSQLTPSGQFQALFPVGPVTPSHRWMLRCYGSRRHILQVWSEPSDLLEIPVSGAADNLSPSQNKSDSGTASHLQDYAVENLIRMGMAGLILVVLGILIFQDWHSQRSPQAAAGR

LILRA6 on reporter cells = molecular target: T20, LILRA6 on reporter cells (UniProt Q6PI73 24-481); test: as above
T20 construct: whole, on cells

[16] = molecular target: T9, recombinant human LILRB1 protein; test: Octet RED96 (BLI), antibody on protein G biosensors, recombinant LILRB1 in solution, FIG. 2E (not Table 14)

T2 sequence (Q8NHL6 116-221 limits assumed): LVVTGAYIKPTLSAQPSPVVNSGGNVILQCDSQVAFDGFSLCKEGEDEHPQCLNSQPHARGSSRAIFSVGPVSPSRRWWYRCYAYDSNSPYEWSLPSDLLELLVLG
T1 sequence (Q8NHL6 27-115 limits assumed): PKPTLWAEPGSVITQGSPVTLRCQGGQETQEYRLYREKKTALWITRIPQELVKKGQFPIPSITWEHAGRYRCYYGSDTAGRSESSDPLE

B1: B1-176 rabbit antibody (antibody, V domains shown)
VH: QSLEESEGGLVKPGGTLTLTCTASGFSFSSSYCMCWVRQAPGKGLELIACIYTDSSGATYYASWAKGRFTISKSSSTTITLQMTSLTAADTATYFCARGWDYEDPGYTDTTYFSLWGPGTLVTVSS
VL: ELDLTQTPSSVEAAVGGTVTIKCQASQTIYTNLAWYQQKPGQPPNLLIYAASTLASGVSSRFKGSGSGTEFTLTISDLECADAATYYCQSYYGSSTTGNGFGGGTEVEIK
notes: Full-length rabbit IgG, kappa; Variable genes were cloned into a rabbit IgG expression vector and expressed in Expi293F cells
binding result (D1-Fc): no binding (tested: not given) | binding result (D2-Fc): no binding (tested: not given) | binding result (D3-Fc): no binding (tested: not given) | binding result (D4SR-Fc): no binding (tested: not given) | binding result (SR-Fc): no binding (tested: not given) | binding result (D23-Fc): no binding (tested: not given) | binding result (D34SR-Fc): no binding (tested: not given) | binding result (D234SR-Fc): no binding (tested: not given) | Kd [1]: < 0.01 nM | percent of cells in the gate (LILRB3 on reporter cells [2]): 0.0698% | percent of cells in the gate (LILRB4 on reporter cells [3]): 0.181% | percent of cells in the gate (LILRB5 on reporter cells [4]): 0.29% | percent of cells in the gate (LILRA2 on reporter cells [5]): 0.11% | percent of cells in the gate (LILRA4 on reporter cells [6]): 0.0736% | binding result (LILRA1 on reporter cells [7]): no binding (tested: 0.5 µg/mL) | binding result (LILRA2 on reporter cells [8]): no binding (tested: 0.5 µg/mL) | percent of cells in the gate (LILRB2 on reporter cells): 0.68% | percent of cells in the gate (LILRB3 on reporter cells [9]): 0.07% | percent of cells in the gate (LILRB4 on reporter cells [10]): 0.18% | percent of cells in the gate (LILRB5 on reporter cells [11]): 0.29% | percent of cells in the gate (LILRA1 on reporter cells [12]): 0.12% | percent of cells in the gate [13]: 99% | percent of cells in the gate (LILRA2 on reporter cells [14]): 0.11% | percent of cells in the gate (LILRA3 on reporter cells): 0.1% | percent of cells in the gate (LILRA4 on reporter cells [15]): 0.074% | percent of cells in the gate (LILRA5 on reporter cells): 0.1% | percent of cells in the gate (LILRA6 on reporter cells): 0.12% | Kd [16]: ~0.01 nM
